Patent publication US20050113327

Test system: Actin of lily pollen tubes

## Aspergillus niger B1 extracellular RNase (RNase B1)
  actin filaments distribution in lily pollen tubes (TRITC-phalloidin staining): in RNase-treated pollen tubes masses of actin were accumulated at the tip cell wall
  lily pollen tube length after 1.5 h in vitro (FIG. 31; control 0.26 mm): Both RNase B1 and IAc-RNase B1 exhibited a clear inhibitory effect on pollen tube growth
  lily pollen tube length after 2 h in vitro (control without RNase about 300 µm): reached only 160 µm in length

## RNase B1 boiled for 30 minutes
  lily pollen tube length after 2 h in vitro (control without RNase about 300 µm): Boiling or autoclaving the RNase yielded pollen tubes of 130 and 170 µm in length, respectively

## autoclaved RNase B1
  lily pollen tube length after 2 h in vitro (control without RNase about 300 µm): Boiling or autoclaving the RNase yielded pollen tubes of 130 and 170 µm in length, respectively

## iodoacetylated (IAc-) RNase B1
  lily pollen tube length after 1.5 h in vitro (FIG. 31; control 0.26 mm): IAc RNase B1 inhibits pollen tubes growth in a similar manner of non-modified RNase B1
